Assay results reported in US20160355553A1 (Janssen / Centocor, published 2016).

Experiments:
H3 Mini-HA cluster 1+6 = H3 Mini-HA cluster 1+6 (influenza A virus H3N2, UniProt O11283 17-566); test: FACS on HEK293F [D00010 FIG. 8B]
H3 Mini-HA cluster 1+4 = H3 Mini-HA cluster 1+4 (influenza A virus H3N2, UniProt O11283 17-566); test: FACS on HEK293F [D00010 FIG. 8B]
H3 Mini-HA cluster 1 = H3 Mini-HA cluster 1 (influenza A virus H3N2, UniProt O11283 17-566); test: FACS on HEK293F [D00010 FIG. 8B]
H3 Mini-HA cluster 1+7 = H3 Mini-HA cluster 1+7 (influenza A virus H3N2, UniProt O11283 17-566); test: FACS on HEK293F [D00010 FIG. 8B]
H3 Mini-HA cluster 1+8 = H3 Mini-HA cluster 1+8 (influenza A virus H3N2, UniProt O11283 17-566); test: FACS on HEK293F [D00010 FIG. 8B]
H3 Mini-HA cluster 1+2 = H3 Mini-HA cluster 1+2 (influenza A virus H3N2, UniProt O11283 17-566); test: FACS on HEK293F [D00010 FIG. 8B]
H3 Mini-HA cluster 1+3 = H3 Mini-HA cluster 1+3 (influenza A virus H3N2, UniProt O11283 17-566); test: FACS on HEK293F [D00010 FIG. 8B]
[1] = target: H3 Full-length A/Hong Kong/1/1968 (influenza A virus H3N2, UniProt Q91MA7 17-566); test: FACS on HEK293F [D00014 FIG. 10B]
H3-mini3-cl9+10+11+12+14 = H3-mini3-cl9+10+11+12+14 (influenza A virus H3N2, UniProt O11283 17-566); test: FACS on HEK293F [D00012 FIG. 9B]
[2] = target: H3-mini2-cl9+10+11+13-tri (influenza A virus H3N2); test: FACS on HEK293F [D00012 FIG. 9B]
H3-mini2-cl9+10+11-tri = H3-mini2-cl9+10+11-tri (influenza A virus H3N2); test: FACS on HEK293F [D00012 FIG. 9B]
H3mini2-cl9+10+11-GCN4 = H3mini2-cl9+10+11-GCN4 (influenza A virus H3N2); test: FACS on HEK293F [D00012 FIG. 9B]
H3-mini2 = H3-mini2 (influenza A virus H3N2, UniProt O11283 17-566); test: FACS on HEK293F [D00012 FIG. 9B]
H3-mini2-cl9+10 = H3-mini2-cl9+10 (influenza A virus H3N2, UniProt O11283 17-566); test: FACS on HEK293F [D00012 FIG. 9B]
H3-mini2-cl9+10+11+13 = H3-mini2-cl9+10+11+13 (influenza A virus H3N2, UniProt O11283 17-566); test: FACS on HEK293F [D00012 FIG. 9B]
H3-mini4-cl9+10+11+12+14 = H3-mini4-cl9+10+11+12+14 (influenza A virus H3N2, UniProt O11283 17-566); test: FACS on HEK293F [D00012 FIG. 9B]
H3-mini2-cl9+10+12 = H3-mini2-cl9+10+12 (influenza A virus H3N2, UniProt O11283 17-566); test: FACS on HEK293F [D00012 FIG. 9B]
H3-mini2-cl9+11 = H3-mini2-cl9+11 (influenza A virus H3N2, UniProt O11283 17-566); test: FACS on HEK293F [D00012 FIG. 9B]
H3-mini2-cl9+10+11+12 = H3-mini2-cl9+10+11+12 (influenza A virus H3N2, UniProt O11283 17-566); test: FACS on HEK293F [D00012 FIG. 9B]
H3-mini2-cl9+13 = H3-mini2-cl9+13 (influenza A virus H3N2, UniProt O11283 17-566); test: FACS on HEK293F [D00012 FIG. 9B]
H3-mini2-cl9+10+11 = H3-mini2-cl9+10+11 (influenza A virus H3N2, UniProt O11283 17-566); test: FACS on HEK293F [D00012 FIG. 9B]
[3] = target: H3-mini2-cl9+10+11+13-GCN4 (influenza A virus H3N2); test: FACS on HEK293F [D00012 FIG. 9B]
[4] = target: H3-mini2-cl9+10+11+12-GCN4 (influenza A virus H3N2, UniProt O11283 17-566); test: FACS on HEK293F [D00012 FIG. 9B]
[5] = target: H3-mini2-cl9+10+11+12-tri (influenza A virus H3N2, UniProt O11283 17-566); test: FACS on HEK293F [D00012 FIG. 9B]
[6] = target: mini2 cluster11 (A/Brisbane/59/2007) (influenza A virus H1N1, UniProt A8C8J4 18-565); test: FACS on HEK293F
[7] = target: mini1 cluster11 (A/Brisbane/59/2007) (influenza A virus H1N1, UniProt A8C8J4 18-565); test: FACS on HEK293F
[8] = target: mini3 cluster11 (A/Brisbane/59/2007) (influenza A virus H1N1, UniProt A8C8J4 18-565); test: FACS on HEK293F

B1: CR6261 (antibody, V domains shown)
VH: EVQLVESGAEVKKPGSSVKVSCKASGGPFRSYAISWVRQAPGQGPEWMGGIIPIFGTTKYAPKFQGRVTITADDFAGTVYMELSSLRSEDTAMYYCAKHMGYQVRETMDVWGKGTTVTVSS
VL: QSVLTQPPSVSAAPGQKVTISCSGSSSNIGNDYVSWYQQLPGTAPKLLIYDNNKRPSGIPDRFSGSKSGTSATLGITGLQTGDEANYYCATWDRRPTAYVVFGGGTKLTVLG
B1: no binding (tested: 5 ug/ml) (H3 Mini-HA cluster 1+6); no binding (tested: 5 ug/ml) (H3 Mini-HA cluster 1+4); no binding (tested: 5 ug/ml) (H3 Mini-HA cluster 1). B1: no binding (tested: 5 ug/ml) (H3 Mini-HA cluster 1+7); no binding (tested: 5 ug/ml) (H3 Mini-HA cluster 1+8); no binding (tested: 5 ug/ml) (H3 Mini-HA cluster 1+2). B1: no binding (tested: 5 ug/ml) (H3 Mini-HA cluster 1+3); no binding (tested: 5 ug/ml) [1]; no binding (tested: 5 ug/ml) (H3-mini3-cl9+10+11+12+14). B1: no binding (tested: 5 ug/ml) [2]; no binding (tested: 5 ug/ml) (H3-mini2-cl9+10+11-tri); no binding (tested: 5 ug/ml) (H3mini2-cl9+10+11-GCN4). B1: no binding (tested: 5 ug/ml) (H3-mini2); no binding (tested: 5 ug/ml) (H3-mini2-cl9+10); no binding (tested: 5 ug/ml) (H3-mini2-cl9+10+11+13). B1: no binding (tested: 5 ug/ml) (H3-mini4-cl9+10+11+12+14); no binding (tested: 5 ug/ml) (H3-mini2-cl9+10+12); no binding (tested: 5 ug/ml) (H3-mini2-cl9+11). B1: no binding (tested: 5 ug/ml) (H3-mini2-cl9+10+11+12); no binding (tested: 5 ug/ml) (H3-mini2-cl9+13); no binding (tested: 5 ug/ml) (H3-mini2-cl9+10+11). B1: no binding (tested: 5 ug/ml) [3]; no binding (tested: 5 ug/ml) [4]; no binding (tested: 5 ug/ml) [5]. B1: binds [6]; binds [7]; binds [8].
